Numbering of substitutions follows the chain as printed. Values belong to the binder of their own block, whether it stands above or below them.
How the values were obtained:
[1] = target: IgG Control; experiment: ELISA screen GH2 (HHJ), table P1-IgG, format IgG/scFv/Etag-HRP
[2] = target: ProL/A-HRP; experiment: ELISA screen GH2 (HHJ), table P1-PrLA, format PrI/scFv/PrA-HRP
[3] = target: Human CD26-Fc fusion protein (human); experiment: ELISA screen GH2 (HHJ), table P1-CD26, format CD26/scFv/Etag-HRP
[4] = target: ProL/A-HRP; experiment: ELISA screen of scFv clones, plate panel 'ProL/A-HRP' (scFv quality check)
[5] = target: Human CD26-Fc fusion protein (human); experiment: ELISA screen of scFv clones, plate panel 'CD26' (CD26-Fc fusion protein per paragraph 510)
[6] = target: IgG Control; experiment: ELISA screen of scFv clones, plate panel 'IgG Control'
[7] = target: Human CD26-Fc fusion protein (human); experiment: ELISA screen, Plate2, panel CD26
[8] = target: ProL/A-HRP; experiment: ELISA screen, Plate2, panel ProL/ProA-HRP
[9] = target: IgG Control; experiment: ELISA screen, Plate2, panel IgG

Sequence of Human CD26-Fc fusion protein (human) (chain, as listed by the source): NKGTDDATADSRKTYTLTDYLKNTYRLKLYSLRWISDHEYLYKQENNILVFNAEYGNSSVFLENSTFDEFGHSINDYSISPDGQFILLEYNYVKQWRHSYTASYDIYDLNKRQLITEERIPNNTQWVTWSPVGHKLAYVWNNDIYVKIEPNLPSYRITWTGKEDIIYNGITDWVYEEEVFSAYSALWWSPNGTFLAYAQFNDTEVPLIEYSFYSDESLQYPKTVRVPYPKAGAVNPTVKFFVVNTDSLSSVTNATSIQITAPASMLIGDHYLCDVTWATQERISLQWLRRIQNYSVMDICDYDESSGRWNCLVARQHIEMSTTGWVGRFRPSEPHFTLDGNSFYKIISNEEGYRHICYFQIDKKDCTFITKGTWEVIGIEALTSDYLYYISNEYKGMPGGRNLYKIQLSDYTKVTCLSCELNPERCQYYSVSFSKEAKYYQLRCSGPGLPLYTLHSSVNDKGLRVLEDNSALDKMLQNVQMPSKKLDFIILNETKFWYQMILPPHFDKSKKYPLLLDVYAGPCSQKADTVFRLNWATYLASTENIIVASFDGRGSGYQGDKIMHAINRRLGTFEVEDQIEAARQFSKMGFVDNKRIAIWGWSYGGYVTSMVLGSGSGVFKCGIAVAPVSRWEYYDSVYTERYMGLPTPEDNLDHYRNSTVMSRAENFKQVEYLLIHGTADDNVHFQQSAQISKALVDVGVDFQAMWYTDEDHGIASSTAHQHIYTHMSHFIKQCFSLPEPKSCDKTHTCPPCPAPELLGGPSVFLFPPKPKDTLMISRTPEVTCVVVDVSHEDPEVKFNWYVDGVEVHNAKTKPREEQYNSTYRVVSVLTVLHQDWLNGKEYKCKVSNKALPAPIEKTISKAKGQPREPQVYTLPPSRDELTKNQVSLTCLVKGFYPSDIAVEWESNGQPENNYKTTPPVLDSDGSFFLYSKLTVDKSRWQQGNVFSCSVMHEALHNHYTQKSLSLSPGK

- ELISA OD450 [4]: 3.13
- ELISA OD450 [5]: 0.948
- ELISA OD450 [6]: 0.05
B3: CD26-01D scFv (scFv, part only; not given: VL-VH linker and detection tag, V domains shown, not shown: another chain or arm of the molecule; small tags and cut ends)
VL: DIQMTQSPSSLSASVGDRVTITCRASQDVNSNVAWYQQKPGKAPKLLIFGSGGLYSGVPSRFSGSGSGTDFTLTISSLQPEDFATYYCQQYSSYPLTFGQGTKVETK
VH: EVQLVESGGGLVQPGGSLRLSCAASGFTINDSYIHWVRQAPGKGLEWVAWIWPYGGFTYYADSVKGRFTISADTSKNTAYLQMNSLRAEDTAVYYCARFLGSSSIMDYWGQGTLVTVSS

- ELISA OD450 [7]: 2.5
- ELISA OD450 [8]: 2.74
- ELISA OD450 [9]: 0.047
B7: CD26-01G scFv (scFv, part only; not given: VL-VH linker and detection tag, V domains shown, not shown: another chain or arm of the molecule; small tags and cut ends)
VL: B3 VL with S31N, N32S, G50S, S51P, G52T, S92F, S93D, Y94F, T106I
VH: EVQLVESGGGLVQPGGSLRLSCAASGFTIGNYGIHWVRQAPGKGLEWVAWIGPSGGYTFYADSVKGRFTISADTSKNTAYLQMNSLRAEDTAVYYCARFDVHGFHGMDYWGQGTLVTVSS

- ELISA OD450 [4]: 3.05
- ELISA OD450 [6]: 0.051
B8: CD26-12D scFv (scFv, part only; not given: VL-VH linker and detection tag, V domains shown, not shown: another chain or arm of the molecule; small tags and cut ends)
VL: B3 VL with N30Y, N32W, F49Y, S51P, G53S, S92Y, S93N, T106I
VH: B3 VH with D31S, W50G, W52G, G55W, Y59S, L100Y, G101S, S103Y, S104G, I105F

- ELISA OD450 [1]: 0.05
- ELISA OD450 [2]: 3.08
- ELISA OD450 [3]: 3.06
B10: CD26-04E scFv (scFv, part only; not given: VL-VH linker and detection tag, V domains shown, not shown: another chain or arm of the molecule; small tags and cut ends)
VL: DIQMTQSPSSLSASVGDRVTITCRASQDVNDGVAWYQQKPGKAPKLLIYWASYLYSGVPSRFSGSGSGTDFTLTISSLQPEDFATYYCQQSWNFPLTFGQGTKVEIK
VH: EVQLVESGGGLVQPGGSLRLSCAASGFTINDGFIHWVRQAPGKGLEWVAGIWPFGGSTSYADSVKGRFTISADTSKNTAYLQMNSLRAEDTAVYYCARFDVVDWGVMDYWGQGTLVTVSS

More lines, now with the values behind:

B1: CD26-03G scFv (scFv, part only; not given: VL-VH linker and detection tag, V domains shown, not shown: another chain or arm of the molecule; small tags and cut ends)
VL: DIQMTQSPSSLSASVGDRVTITCRASQDVSSSVAWYQQKPGKAPKLLISYPGWLYSGVPSRFSGSGSGTDFTLTISSLQPEDFATYYCQQFGDFPMTFGQGTKVEIK
VH: B7 VH with S54Y, D100N, V101N, H102L, G103L, F104W, H105N
- ELISA OD450 [1]: 0.05
- ELISA OD450 [2]: 3.16
- ELISA OD450 [3]: 3.08

B2: CD26-04A scFv (scFv, part only; not given: VL-VH linker and detection tag, V domains shown, not shown: another chain or arm of the molecule; small tags and cut ends)
VL: B10 VL with N30S, D31G, W50G, A51T, Y53G, S91G, W92G, N93D, F94W, L96I
VH: EVQLVESGGGLVQPGGSLRLSCAASGFAINNYSIHWVRQAPGKGLEWVASIWPYGGFTSYADSVKGRFTISADTSKNTAYLQMNSLRAEDTAVYYCARFFSSYGDMDYWGQGTLVTVSS
- ELISA OD450 [4]: 3.11
- ELISA OD450 [5]: 2.92
- ELISA OD450 [6]: 0.069

B4: CD26-03B scFv (scFv, part only; not given: VL-VH linker and detection tag, V domains shown, not shown: another chain or arm of the molecule; small tags and cut ends)
VL: B3 VL with N30Y, S31Y, N32F, F49S, G50W, S51P, G52T, S92F, L96I, T106I
VH: B3 VH with N30G, D31N, W50G, W52G, G55W, Y59S, L100N, S104G, I105F
- ELISA OD450 [4]: 3.14
- ELISA OD450 [6]: 0.045

B5: CD26-01F scFv (scFv, part only; not given: VL-VH linker and detection tag, V domains shown, not shown: another chain or arm of the molecule; small tags and cut ends)
VL: DIQMTQSPSSLSASVGDRVTITCRASQDVWGYVAWYQQKPGKAPKLLIFSSRSLYSGVPSRFSGSGSGTDFTLTISSLQPEDFATYYCQQYFNWPITFGQGTKVEIK
VH: B2 VH with A28T, N30S, N31D, F100H, Y103S
- ELISA OD450 [7]: 1.29
- ELISA OD450 [8]: 2.71
- ELISA OD450 [9]: 0.045

B6: CD26-10B scFv (scFv, part only; not given: VL-VH linker and detection tag, V domains shown, not shown: another chain or arm of the molecule; small tags and cut ends)
VL: B5 VL with S50A, R52G, S53A
VH: B2 VH with A28T, N30S, N31D, F100H, Y103S
- ELISA OD450 [4]: 3.03
- ELISA OD450 [5]: 0.68
- ELISA OD450 [6]: 0.046

B9: CD26-07H scFv (scFv, part only; not given: VL-VH linker and detection tag, V domains shown, not shown: another chain or arm of the molecule; small tags and cut ends)
VL: DIQMTQSPSSLSASVGDRVTITCKSNQNLLYSHGRTYLNWYQQKPGKAPKLLIFGTSHLYSGVPSRFSGSGSGTDFTLTISSLQPEDFATYYCYQGYHVPFTFGQGTKVEIK
VH: EVQLVESGGGLVQPGGSLRLSCKASGYTFARFGMYWVRQAPGKGLEWVAFIAPNHGYTFYADSVKGRFTISADTSKNTAYLQMNSLRAEDTAVYYCARGHWYHGYMDYWGQGTLVTVSS
- ELISA OD450 [7]: 2.3
- ELISA OD450 [8]: 2.73
- ELISA OD450 [9]: 0.047
